B1: activation domain of the progesterone receptor (PR) (domain or fragment, UniProt P06401 1-566, looked up)
chain: MTELKAKGPRAPHVAGGPPSPEVGSPLLCRPAAGPFPGSQTSDTLPEVSAIPISLDGLLFPRPCQGQDPSDEKTQDQQSLSDVEGAYSRAEATRGAGGSSSSPPEKDSGLLDSVLDTLLAPSGPGQSQPSPPACEVTSSWCLFGPELPEDPPAAPATQRVLSPLMSRSGCKVGDSSGTAAAHKVLPRGLSPARQLLLPASESPHWSGAPVKPSPQAAAVEVEEEDGSESEESAGPLLKGKPRALGGAAAGGGAAAVPPGAAAGGVALVPKEDSRFSAPRVALVEQDAPMAPGRSPLATTVMDFIHVPILPLNHALLAARTRQLLEDESYDGGAGAASAFAPPRSSPCASSTPVAVGDFPDCAYPPDAEPKDDAYPLYSDFQPPALKIKEEEEGAEASARSPRSYLVAGANPAAFPDFPLGPPPPLPPRATPSRPGEAAVTAAPASASVSSASSSGSTLECILYKAEGAPPQQGPFAPPPCKAPGASGCLLPRDGLPSTSASAAAAGAAPALYPALGLNGLPQLGYQAAVLKEGLPQVYPPYLNYLRPDSEASQSPQYSFESLPQKI
notes: also called PR AD; PR (1-566 aa); source: E. coli Rosetta (DE3), pDEST17, purified (inclusion bodies in urea, HisTrap, tag cleavage, SEC); not shown: His-tag, N-terminal, cleaved
B2: activation domain of the mineralocorticoid receptor (MR) (domain or fragment, UniProt P08235 1-602, looked up)
chain: METKGYHSLPEGLDMERRWGQVSQAVERSSLGPTERTDENNYMEIVNVSCVSGAIPNNSTQGSSKEKQELLPCLQQDNNRPGILTSDIKTELESKELSATVAESMGLYMDSVRDADYSYEQQNQQGSMSPAKIYQNVEQLVKFYKGNGHRPSTLSCVNTPLRSFMSDSGSSVNGGVMRAVVKSPIMCHEKSPSVCSPLNMTSSVCSPAGINSVSSTTASFGSFPVHSPITQGTPLTCSPNVENRGSRSHSPAHASNVGSPLSSPLSSMKSSISSPPSHCSVKSPVSSPNNVTLRSSVSSPANINNSRCSVSSPSNTNNRSTLSSPAASTVGSICSPVNNAFSYTASGTSAGSSTLRDVVPSPDTQEKGAQEVPFPKTEEVESAISNGVTGQLNIVQYIKPEPDGAFSSSCLGGNSKINSDSSFSVPIKQESTKHSCSGTSFKGNPTVNPFPFMDGSYFSFMDDKDYYSLSGILGPPVPGFDGNCEGSGFPVGIKQEPDDGSYYPEASIPSSAIVGVNSGGQSFHYRIGAQGTISLSRSARDQSFQHLSSFPPVNTLVESWKSHGDLSSRRSDGYPVLEYIPENVSSSTLRSVSTGSSRPSKI
notes: also called MR AD; MR (1-602 aa); source: E. coli Rosetta (DE3), pDEST17, purified (inclusion bodies in urea, HisTrap, tag cleavage, SEC); not shown: His-tag, N-terminal, cleaved
B3: activation domain of the glucocorticoid receptor (GR) (domain or fragment, UniProt P04150 1-420, looked up)
chain: MDSKESLTPGREENPSSVLAQERGDVMDFYKTLRGGATVKVSASSPSLAVASQSDSKQRRLLVDFPKGSVSNAQQPDLSKAVSLSMGLYMGETETKVMGNDLGFPQQGQISLSSGETDLKLLEESIANLNRSTSVPENPKSSASTAVSAAPTEKEFPKTHSDVSSEQQHLKGQTGTNGGNVKLYTTDQSTFDILQDLEFSSGSPGKETNESPWRSDLLIDENCLLSPLAGEDDSFLLEGNSNEDCKPLILPDTKPKIKDNGDLVLSSPSNVTLPQVKTEKEDFIELCTPGVIKQEKLGTVYCQASFPGANIIGNKMSAISVHGVSTSGGQMYHYDMNTASLSQQQDQKPIFNVIPPIPVGSENWNRCQGSGDDNLTSLGTLNFPGRTVFSNGYSSPSMRPDVSSPPSSSSTATTGPPPKL
notes: also called GR AD; GR (1-420 aa); source: E. coli Rosetta (DE3), pDEST17, purified (inclusion bodies in urea, HisTrap, tag cleavage, SEC); not shown: His-tag, N-terminal, cleaved
B4: activation domain of the estrogen receptor alpha (ERɑ) (domain or fragment, UniProt P03372 1-184, looked up)
chain: MTMTLHTKASGMALLHQIQGNELEPLNRPQLKIPLERPLGEVYLDSSKPAVYNYPEGAAYEFNAAAAANAQVYGQTGLPYGPGSEAAAFGSNGLGGFPPLNSVSPSPLMLLHPPPQLSPFLQPHGQQVPYYLENEPSGYTVREAGPPAFYRPNSDNRRQGGRERLASTNDKGSMAMESAKETRY
notes: also called ERɑ AD; ERɑ (1-184 aa); source: E. coli Rosetta (DE3), pDEST17, purified (inclusion bodies in urea, HisTrap, tag cleavage, SEC); not shown: His-tag, N-terminal, cleaved

Target: the molecule itself
Experiment: dynamic light scattering; one purified protein in solution; NR ADs at 2 mg/mL (AR AD also 35 µM), Tau-5* at 200 to 500 µM; 5 °C; 20 mM sodium phosphate pH 7.4, 1 mM TCEP, 0.5% DMSO-d6; percent of monomer against higher-order species; also with increasing EPI-001

Does B1 bind?
Result: binds

Does B2 bind?
Result: binds

Does B3 bind?
Result: binds

Does B4 bind?
Result: binds
